Data taken from patent publication US20210096139A1.

Target: human CSF tau (human) (UniProt P10636)
Test: IP of tau from human CSF on antibody beads; recovery assessed by N-terminus tau ELISA (HJ8.5 capture, HJ8.7-biotin detection); value is the average over Tau12, HJ8.5 and HJ8.7

UniProt P10636, sequence (P10636 2-758 limits assumed): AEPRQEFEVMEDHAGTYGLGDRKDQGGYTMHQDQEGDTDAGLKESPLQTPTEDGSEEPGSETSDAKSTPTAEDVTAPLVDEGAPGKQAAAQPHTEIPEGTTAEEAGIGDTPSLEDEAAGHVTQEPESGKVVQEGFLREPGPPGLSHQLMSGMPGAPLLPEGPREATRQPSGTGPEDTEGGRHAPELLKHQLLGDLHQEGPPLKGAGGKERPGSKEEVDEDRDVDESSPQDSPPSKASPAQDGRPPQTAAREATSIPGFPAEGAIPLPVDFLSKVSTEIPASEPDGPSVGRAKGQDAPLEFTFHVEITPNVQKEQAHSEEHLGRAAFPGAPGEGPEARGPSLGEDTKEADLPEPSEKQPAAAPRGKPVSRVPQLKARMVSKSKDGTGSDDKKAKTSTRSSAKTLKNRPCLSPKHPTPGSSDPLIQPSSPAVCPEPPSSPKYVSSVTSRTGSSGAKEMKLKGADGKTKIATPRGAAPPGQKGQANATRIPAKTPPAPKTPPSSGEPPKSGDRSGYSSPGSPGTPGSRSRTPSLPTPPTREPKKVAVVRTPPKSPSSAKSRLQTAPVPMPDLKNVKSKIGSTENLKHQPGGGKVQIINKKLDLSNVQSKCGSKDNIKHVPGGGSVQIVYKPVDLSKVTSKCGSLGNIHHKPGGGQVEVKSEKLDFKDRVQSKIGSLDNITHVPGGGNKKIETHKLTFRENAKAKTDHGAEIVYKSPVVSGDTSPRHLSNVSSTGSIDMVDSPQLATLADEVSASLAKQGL

Substance: HJ8.7 (antibody)
- immunoprecipitation efficiency: 99.3%

Substance: Tau12 (antibody)
- immunoprecipitation efficiency: 99.3%
